Laboratory results as given in patent US20210063414A1, “METHODS FOR PREVENTING AND/OR TREATING BONE LOSS CONDITIONS BY MODULATING IRISIN” (Dana-Farber Cancer Institute, Inc., priority 2018, published 2021).

Legend:
Experiment in all cases: Crosslinking/co-immunoprecipitation/mass spectrometry (TMT quantitative proteomics) to identify irisin receptors
Assay type in all cases: binding
[1] = molecular target: T1, MLO-Y4 cell surface proteins (Mus musculus, UniProt G3X9C2); conditions: co-precipitated protein Nccrp1 (FBX50_MOUSE)
T1 construct: endogenous in cells; host or cells: MLO-Y4
T1 sequence (G3X9C2 1-266): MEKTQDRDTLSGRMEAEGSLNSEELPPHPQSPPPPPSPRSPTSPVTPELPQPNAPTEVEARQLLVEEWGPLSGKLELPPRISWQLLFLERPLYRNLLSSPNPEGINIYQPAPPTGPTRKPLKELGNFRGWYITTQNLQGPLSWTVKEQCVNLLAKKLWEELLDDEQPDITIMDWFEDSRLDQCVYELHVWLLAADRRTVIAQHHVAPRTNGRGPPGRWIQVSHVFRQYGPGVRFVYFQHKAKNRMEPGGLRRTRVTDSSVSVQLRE
Outline: (§1)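 Mouse MLO-Y4 cells were switched to serum-free FreeStyle medium for 4 h, chilled, then exposed to 10 nM His-tagged irisin (or adipsin as control) for 20 min. Cells were crosslinked with 1.5 mM DTSSP (30 min, ice), and bound proteins were pulled down on Ni-NTA and eluted with 250 mM imidazole. Eluates were separated by SDS-PAGE, trypsin-digested in gel, TMT 6-plex labelled and quantified by MS3-based LC-MS/MS on an Orbitrap Fusion Lumos.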

[2] = molecular target: T2, MLO-Y4 cell surface proteins (Mus musculus, UniProt Q791V5); conditions: co-precipitated protein Mteh2 (MTCH2_MOUSE)
T2 construct: endogenous in cells; host or cells: MLO-Y4
T2 sequence (Q791V5 1-303): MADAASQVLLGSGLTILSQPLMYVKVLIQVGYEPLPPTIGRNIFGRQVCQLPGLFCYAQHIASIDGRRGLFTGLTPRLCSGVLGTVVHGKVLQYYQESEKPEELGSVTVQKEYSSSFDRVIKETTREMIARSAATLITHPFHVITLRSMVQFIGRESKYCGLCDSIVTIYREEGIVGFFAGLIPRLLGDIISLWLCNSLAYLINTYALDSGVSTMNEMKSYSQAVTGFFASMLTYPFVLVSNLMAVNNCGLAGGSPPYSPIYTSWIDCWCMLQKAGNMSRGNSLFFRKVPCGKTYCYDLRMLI
Outline: as §1

[3] = molecular target: T3, MLO-Y4 cell surface proteins (Mus musculus, UniProt Q8BFT2); conditions: co-precipitated protein Haus4 (HAUS4_MOUSE)
T3 construct: endogenous in cells; host or cells: MLO-Y4
T3 sequence (Q8BFT2 1-363): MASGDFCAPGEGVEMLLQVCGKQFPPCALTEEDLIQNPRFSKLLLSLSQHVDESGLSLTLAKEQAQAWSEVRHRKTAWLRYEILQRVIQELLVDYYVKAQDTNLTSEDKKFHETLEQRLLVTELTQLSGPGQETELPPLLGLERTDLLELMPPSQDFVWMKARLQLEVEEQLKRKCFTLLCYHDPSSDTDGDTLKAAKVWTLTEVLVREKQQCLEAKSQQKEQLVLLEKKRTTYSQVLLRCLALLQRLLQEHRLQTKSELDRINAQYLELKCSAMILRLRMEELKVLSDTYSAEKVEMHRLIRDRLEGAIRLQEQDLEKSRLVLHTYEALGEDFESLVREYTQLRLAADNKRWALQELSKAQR
Outline: as §1

[4] = molecular target: T4, MLO-Y4 cell surface proteins (Mus musculus, UniProt Q8R1I1); conditions: co-precipitated protein Uqcr10 (QCR9_MOUSE)
T4 construct: endogenous in cells; host or cells: MLO-Y4
T4 sequence (Q8R1I1 1-64): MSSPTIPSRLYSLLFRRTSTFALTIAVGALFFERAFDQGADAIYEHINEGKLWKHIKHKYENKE
Outline: as §1

TMT signal-to-noise ratio [1]: 113.564
TMT signal-to-noise ratio [2]: 101.527
TMT signal-to-noise ratio [3]: 518.102
TMT signal-to-noise ratio [4]: 243.198
Substance: adipsin
